{
  "source": "patent US20090149389A1",
  "about": "(PURDUE RESEARCH FOUNDATION, published 2009)",
  "assay_in_all_cases": "cell-based or functional assay",
  "key": {"PKB β (h)": {"target": "PKB β (h) (human (h), UniProt P31751 1-481, limits assumed)", "sequence (P31751 whole entry)": "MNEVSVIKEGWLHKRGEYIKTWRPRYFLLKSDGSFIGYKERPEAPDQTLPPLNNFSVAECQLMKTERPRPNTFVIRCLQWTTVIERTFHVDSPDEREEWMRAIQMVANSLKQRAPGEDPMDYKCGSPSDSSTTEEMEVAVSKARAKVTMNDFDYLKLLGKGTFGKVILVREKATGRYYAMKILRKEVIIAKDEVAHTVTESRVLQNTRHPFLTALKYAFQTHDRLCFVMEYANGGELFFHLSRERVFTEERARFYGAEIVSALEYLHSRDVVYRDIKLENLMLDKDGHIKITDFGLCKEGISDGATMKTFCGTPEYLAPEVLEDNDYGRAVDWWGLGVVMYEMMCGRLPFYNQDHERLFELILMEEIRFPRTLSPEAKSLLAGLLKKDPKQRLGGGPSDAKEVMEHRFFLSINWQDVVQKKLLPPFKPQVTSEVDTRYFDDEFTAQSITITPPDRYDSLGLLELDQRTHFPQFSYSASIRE"}, "CHK1 (h)": {"target": "T1, CHK1 (h) (human (h), UniProt O14757 1-476)", "T1 sequence (looked up)": "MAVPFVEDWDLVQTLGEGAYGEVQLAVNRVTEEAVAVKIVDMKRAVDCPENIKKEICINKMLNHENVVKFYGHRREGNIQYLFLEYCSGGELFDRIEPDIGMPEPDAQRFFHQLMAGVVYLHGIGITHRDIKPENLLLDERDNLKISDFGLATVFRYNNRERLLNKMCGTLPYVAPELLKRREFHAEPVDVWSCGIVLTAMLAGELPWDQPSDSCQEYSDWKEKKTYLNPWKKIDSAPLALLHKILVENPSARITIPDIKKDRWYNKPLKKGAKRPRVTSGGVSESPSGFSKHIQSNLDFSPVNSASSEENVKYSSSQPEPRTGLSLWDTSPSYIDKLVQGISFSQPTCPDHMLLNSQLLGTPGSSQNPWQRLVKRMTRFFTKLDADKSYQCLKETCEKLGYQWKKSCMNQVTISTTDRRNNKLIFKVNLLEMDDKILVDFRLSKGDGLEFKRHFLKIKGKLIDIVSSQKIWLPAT"}, "cKit (h)": {"target": "cKit (h) (human (h), UniProt P10721 544-976, limits assumed)", "sequence (P10721 544-976 limits assumed)": "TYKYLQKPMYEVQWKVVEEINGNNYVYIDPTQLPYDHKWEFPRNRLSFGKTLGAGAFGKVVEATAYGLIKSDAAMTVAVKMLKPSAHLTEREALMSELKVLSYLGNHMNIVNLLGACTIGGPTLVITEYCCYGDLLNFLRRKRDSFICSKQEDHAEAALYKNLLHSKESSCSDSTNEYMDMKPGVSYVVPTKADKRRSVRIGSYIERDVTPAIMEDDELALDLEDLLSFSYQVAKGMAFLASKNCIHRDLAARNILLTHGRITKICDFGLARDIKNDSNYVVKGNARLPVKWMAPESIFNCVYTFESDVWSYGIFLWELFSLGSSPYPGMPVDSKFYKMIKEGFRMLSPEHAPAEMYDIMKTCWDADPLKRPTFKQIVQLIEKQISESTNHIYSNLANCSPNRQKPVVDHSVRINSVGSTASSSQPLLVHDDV"}, "CK2 (h)": {"target": "CK2 (h) (human (h), UniProt P68400 1-391)", "sequence (P68400 whole entry)": "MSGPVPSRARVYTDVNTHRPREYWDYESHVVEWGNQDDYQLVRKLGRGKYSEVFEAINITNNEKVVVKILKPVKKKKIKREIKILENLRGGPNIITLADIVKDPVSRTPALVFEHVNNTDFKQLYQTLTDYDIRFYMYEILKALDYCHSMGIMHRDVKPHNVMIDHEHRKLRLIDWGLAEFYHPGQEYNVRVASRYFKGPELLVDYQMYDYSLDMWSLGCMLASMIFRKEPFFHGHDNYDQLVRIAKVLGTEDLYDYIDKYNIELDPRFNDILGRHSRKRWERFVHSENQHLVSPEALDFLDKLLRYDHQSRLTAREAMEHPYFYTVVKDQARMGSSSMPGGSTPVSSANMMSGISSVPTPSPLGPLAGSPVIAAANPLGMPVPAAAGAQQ"}, "PKCδ (h)": {"target": "PKCδ (h) (human (h), UniProt Q05655 1-676)", "sequence (Q05655 whole entry, stated change not applied)": "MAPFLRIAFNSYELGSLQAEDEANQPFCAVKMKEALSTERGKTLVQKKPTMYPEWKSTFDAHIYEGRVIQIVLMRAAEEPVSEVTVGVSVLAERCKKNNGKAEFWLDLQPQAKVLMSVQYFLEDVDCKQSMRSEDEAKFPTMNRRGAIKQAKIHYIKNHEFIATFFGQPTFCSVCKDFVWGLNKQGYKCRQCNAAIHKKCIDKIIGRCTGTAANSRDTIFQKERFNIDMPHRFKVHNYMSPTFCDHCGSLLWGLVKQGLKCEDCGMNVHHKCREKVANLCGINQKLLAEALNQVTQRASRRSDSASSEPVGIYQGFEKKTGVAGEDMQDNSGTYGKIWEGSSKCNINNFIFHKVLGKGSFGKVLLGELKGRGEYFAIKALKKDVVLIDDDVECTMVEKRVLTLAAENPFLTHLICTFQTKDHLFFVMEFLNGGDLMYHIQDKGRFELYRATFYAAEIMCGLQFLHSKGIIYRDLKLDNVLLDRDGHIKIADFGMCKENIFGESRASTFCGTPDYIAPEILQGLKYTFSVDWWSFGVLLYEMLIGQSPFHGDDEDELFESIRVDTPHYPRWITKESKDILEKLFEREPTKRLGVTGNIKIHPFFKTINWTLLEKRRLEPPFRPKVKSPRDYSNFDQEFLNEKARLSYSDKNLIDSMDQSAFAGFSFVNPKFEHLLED"}, "PKG1β (h)": {"target": "T2, PKG1β (h) (human (h), UniProt Q13976-2 1-686)", "T2 sequence (looked up)": "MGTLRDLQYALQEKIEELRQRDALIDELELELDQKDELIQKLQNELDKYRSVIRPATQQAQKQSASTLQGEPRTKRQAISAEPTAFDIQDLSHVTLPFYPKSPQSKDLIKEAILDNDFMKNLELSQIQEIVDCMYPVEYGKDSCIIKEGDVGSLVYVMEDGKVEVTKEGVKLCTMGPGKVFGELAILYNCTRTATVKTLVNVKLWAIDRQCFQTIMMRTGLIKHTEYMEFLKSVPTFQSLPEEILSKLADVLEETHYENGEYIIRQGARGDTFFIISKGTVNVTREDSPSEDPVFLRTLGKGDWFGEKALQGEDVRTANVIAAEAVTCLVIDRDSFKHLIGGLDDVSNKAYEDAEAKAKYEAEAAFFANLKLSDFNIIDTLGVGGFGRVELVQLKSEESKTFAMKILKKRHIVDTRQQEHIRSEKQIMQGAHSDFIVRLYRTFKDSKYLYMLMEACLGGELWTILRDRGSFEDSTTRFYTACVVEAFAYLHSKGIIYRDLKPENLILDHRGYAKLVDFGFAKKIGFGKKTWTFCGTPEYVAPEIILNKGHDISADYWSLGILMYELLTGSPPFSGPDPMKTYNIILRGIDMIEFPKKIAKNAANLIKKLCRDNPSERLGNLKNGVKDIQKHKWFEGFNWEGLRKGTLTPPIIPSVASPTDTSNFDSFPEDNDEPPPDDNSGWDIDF"}, "CKIB (h)": {"target": "CKIB (h) (human (h))"}, "Flt3 (h)": {"target": "T3, Flt3 (h) (human (h), UniProt P36888 564-993, limits assumed)", "T3 sequence (looked up)": "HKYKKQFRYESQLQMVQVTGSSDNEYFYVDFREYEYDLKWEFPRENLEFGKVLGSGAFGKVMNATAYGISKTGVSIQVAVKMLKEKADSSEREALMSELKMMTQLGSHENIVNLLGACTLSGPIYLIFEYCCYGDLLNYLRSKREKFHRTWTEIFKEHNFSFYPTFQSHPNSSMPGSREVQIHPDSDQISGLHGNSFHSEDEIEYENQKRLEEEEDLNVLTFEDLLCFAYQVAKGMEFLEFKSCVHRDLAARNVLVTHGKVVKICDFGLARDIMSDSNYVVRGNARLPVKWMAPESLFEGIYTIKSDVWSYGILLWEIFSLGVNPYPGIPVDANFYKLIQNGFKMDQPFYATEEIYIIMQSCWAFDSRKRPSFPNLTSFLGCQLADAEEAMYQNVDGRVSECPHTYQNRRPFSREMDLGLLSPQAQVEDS"}, "MAPKI (h)": {"target": "MAPKI (h) (human (h), UniProt P28482 1-360, limits assumed)", "sequence (P28482 whole entry)": "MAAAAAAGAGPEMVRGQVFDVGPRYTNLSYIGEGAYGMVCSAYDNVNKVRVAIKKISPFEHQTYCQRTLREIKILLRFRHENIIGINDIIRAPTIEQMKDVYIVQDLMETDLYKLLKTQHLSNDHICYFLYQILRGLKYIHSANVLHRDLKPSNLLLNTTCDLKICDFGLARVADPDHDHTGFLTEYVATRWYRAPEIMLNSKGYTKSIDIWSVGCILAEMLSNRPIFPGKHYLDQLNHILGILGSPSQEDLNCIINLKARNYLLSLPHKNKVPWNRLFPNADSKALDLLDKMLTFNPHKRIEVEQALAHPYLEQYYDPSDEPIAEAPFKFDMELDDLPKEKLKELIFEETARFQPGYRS"}, "Src(1-530) (h)": {"target": "Src(1-530) (h) (human (h), UniProt P12931 1-530)"}, "PDGFRβ (h)": {"target": "PDGFRβ (h) (human (h), UniProt P09619 558-1106, limits assumed)", "sequence (P09619 558-1106 limits assumed)": "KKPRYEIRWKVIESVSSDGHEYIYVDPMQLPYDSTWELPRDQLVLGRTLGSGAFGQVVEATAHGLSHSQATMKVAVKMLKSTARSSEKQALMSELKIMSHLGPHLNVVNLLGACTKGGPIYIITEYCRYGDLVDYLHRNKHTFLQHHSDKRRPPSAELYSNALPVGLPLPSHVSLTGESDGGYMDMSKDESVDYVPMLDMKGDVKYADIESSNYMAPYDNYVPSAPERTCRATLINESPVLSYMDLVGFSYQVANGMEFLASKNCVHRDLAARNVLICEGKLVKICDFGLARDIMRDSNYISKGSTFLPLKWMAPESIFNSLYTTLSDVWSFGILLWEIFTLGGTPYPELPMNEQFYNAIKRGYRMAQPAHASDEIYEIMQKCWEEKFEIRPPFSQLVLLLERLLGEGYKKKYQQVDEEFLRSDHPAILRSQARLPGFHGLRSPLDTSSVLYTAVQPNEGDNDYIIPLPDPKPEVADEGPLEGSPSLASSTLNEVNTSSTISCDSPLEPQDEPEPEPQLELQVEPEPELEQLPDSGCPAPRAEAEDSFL"}, "BTK (h)": {"target": "BTK (h) (human (h), UniProt Q06187 1-659)", "sequence (Q06187 whole entry)": "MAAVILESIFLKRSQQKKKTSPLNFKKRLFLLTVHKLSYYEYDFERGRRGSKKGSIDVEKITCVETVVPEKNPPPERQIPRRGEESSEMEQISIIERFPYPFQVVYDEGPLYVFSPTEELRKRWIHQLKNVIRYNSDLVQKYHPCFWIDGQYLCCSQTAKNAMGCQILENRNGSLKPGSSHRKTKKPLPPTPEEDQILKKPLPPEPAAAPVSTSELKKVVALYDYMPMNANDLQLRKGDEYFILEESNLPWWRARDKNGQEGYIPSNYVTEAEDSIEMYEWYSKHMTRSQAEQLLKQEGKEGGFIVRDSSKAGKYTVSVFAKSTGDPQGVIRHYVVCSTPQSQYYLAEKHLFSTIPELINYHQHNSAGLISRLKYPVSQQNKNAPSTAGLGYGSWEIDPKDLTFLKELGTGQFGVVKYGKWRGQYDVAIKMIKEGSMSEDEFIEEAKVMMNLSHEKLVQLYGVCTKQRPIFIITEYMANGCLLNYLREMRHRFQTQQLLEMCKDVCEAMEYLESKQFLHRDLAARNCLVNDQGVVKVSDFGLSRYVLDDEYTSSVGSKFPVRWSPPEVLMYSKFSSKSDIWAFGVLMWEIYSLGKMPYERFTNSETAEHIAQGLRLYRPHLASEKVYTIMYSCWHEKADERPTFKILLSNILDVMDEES"}, "PhKγ2 (h)": {"target": "T4, PhKγ2 (h) (human (h), UniProt P15735 1-406)", "T4 sequence (looked up)": "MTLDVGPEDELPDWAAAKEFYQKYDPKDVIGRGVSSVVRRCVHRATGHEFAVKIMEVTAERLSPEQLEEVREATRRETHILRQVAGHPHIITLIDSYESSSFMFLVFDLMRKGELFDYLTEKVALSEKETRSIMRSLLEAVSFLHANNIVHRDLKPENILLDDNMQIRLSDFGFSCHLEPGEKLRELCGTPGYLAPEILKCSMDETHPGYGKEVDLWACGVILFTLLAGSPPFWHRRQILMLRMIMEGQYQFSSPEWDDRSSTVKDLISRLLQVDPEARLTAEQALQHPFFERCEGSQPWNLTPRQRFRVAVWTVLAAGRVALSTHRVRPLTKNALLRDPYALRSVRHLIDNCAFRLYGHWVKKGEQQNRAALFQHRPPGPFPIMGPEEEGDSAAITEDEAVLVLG"}, "FGFR1 (h)": {"target": "FGFR1 (h) (human (h), UniProt P11362 456-765, limits assumed)", "sequence (P11362 456-765 limits assumed)": "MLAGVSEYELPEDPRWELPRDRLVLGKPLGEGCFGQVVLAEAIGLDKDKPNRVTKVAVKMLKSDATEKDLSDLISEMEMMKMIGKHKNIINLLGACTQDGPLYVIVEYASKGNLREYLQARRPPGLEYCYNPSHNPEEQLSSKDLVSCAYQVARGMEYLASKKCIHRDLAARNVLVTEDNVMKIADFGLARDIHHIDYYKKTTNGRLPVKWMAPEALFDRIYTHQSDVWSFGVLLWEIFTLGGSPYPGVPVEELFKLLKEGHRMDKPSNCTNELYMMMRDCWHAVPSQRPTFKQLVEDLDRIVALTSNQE"}},
  "data": [
    {"binder": "WLRRIKAWLRRIKALNRQLGVAA", "values": [
      {"measurement": "Profile-1 @ = 30 µm (kinase profiler assay)", "setting": "PKB β (h)", "result": 18},
      {"measurement": "Profile-1 @ = 30 µm (kinase profiler assay)", "setting": "CHK1 (h)", "result": 31},
      {"measurement": "Profile-1 @ = 30 µm (kinase profiler assay)", "setting": "cKit (h)", "result": 23},
      {"measurement": "Profile-1 @ = 30 µm (kinase profiler assay)", "setting": "CK2 (h)", "result": 114},
      {"measurement": "Profile-1 @ = 30 µm (kinase profiler assay)", "setting": "PKCδ (h)", "result": 11},
      {"measurement": "Profile-1 @ = 30 µm (kinase profiler assay)", "setting": "PKG1β (h)", "result": 15},
      {"measurement": "Profile-1 @ = 30 µm (kinase profiler assay)", "setting": "CKIB (h)", "result": 52},
      {"measurement": "Profile-1 @ = 30 µm (kinase profiler assay)", "setting": "Flt3 (h)", "result": 38},
      {"measurement": "Profile-1 @ = 30 µm (kinase profiler assay)", "setting": "MAPKI (h)", "result": 121},
      {"measurement": "Profile-1 @ = 30 µm (kinase profiler assay)", "setting": "Src(1-530) (h)", "result": 6},
      {"measurement": "Profile-1 @ = 30 µm (kinase profiler assay)", "setting": "PDGFRβ (h)", "result": 42},
      {"measurement": "Profile-1 @ = 30 µm (kinase profiler assay)", "setting": "BTK (h)", "result": 5},
      {"measurement": "Profile-1 @ = 30 µm (kinase profiler assay)", "setting": "PhKγ2 (h)", "result": 15},
      {"measurement": "Profile-1 @ = 30 µm (kinase profiler assay)", "setting": "FGFR1 (h)", "result": 27}
    ]}
  ]
}
